Measured values reported in US20160130340A1 (ALDERBIO, published 2016).
One block for each binder: values may come before it.

Assays:
Mouse IL-6 [1] = molecular target: T1, Mouse IL-6 (mouse, UniProt P08505 25-211); assay: cell-based or functional assay
T1 sequence (looked up): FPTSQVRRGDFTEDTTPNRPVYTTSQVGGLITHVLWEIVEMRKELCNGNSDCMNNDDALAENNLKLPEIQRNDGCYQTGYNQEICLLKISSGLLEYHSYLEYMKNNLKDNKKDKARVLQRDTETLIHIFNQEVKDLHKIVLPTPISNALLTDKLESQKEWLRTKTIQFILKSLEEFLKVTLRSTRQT

Cynomolgus monkey IL-6 [2] = molecular target: T2, Cynomolgus monkey IL-6 (cynomolgus monkey, UniProt P79341 28-212, limits assumed); assay: cell-based or functional assay
T2 sequence (looked up): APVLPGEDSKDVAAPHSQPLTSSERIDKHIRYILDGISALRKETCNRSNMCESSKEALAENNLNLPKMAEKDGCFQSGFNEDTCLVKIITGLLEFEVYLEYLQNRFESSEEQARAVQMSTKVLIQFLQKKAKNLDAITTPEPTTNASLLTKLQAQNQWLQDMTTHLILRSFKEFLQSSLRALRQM

Human IL-6 [3] = molecular target: T3, Human IL-6 (human, UniProt P05231 30-212); assay: cell-based or functional assay
Rat IL-6 [4] = molecular target: T4, Rat IL-6 (rat, UniProt P20607 25-211); assay: cell-based or functional assay
T4 sequence (looked up): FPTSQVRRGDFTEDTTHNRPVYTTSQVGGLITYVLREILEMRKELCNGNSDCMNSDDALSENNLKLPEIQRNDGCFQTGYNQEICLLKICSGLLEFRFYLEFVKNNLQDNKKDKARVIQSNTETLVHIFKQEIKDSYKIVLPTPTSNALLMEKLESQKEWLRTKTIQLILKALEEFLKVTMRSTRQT

Mouse IL-6 [5] = molecular target: T1, Mouse IL-6; assay: surface plasmon resonance, 25 C, averaged constants
Cynomolgus monkey IL-6 [6] = molecular target: T2, Cynomolgus monkey IL-6; assay: as above
Human IL-6 [7] = molecular target: T3, Human IL-6; assay: as above
Rat IL-6 [8] = molecular target: T4, Rat IL-6; assay: as above
Human IL-6 [9] = molecular target: T3, Human IL-6; assay: Octet bio-layer interferometry; biotinylated IL-6 on streptavidin sensor, then antibody or buffer, then soluble IL-6R1, then gp130 in the presence of IL-6R1; blocked ligand: gp130
Description: (§1) To determine the antibody mechanism of action, mechanistic studies were performed using bio-layer interferometry with an Octet QK instrument (ForteBio; Menlo Park, Calif.). Studies were performed in two different configurations. […] Binding is monitored as an increase in signal.
The IL-6 bound to the sensor was then incubated either with the antibody in question or diluent solution alone.

Human IL-6 [10] = molecular target: T3, Human IL-6; assay: Octet bio-layer interferometry; antibody captured on anti-human IgG Fc sensor, then IL-6, then soluble IL-6R1, then gp130 in the presence of IL-6R1; ligand whose binding is slowed: gp130
Description: as §1
(§2) In the second orientation, the antibody was bound to a biosensor coated with an anti-human IgG1 Fc-specific reagent (ForteBio part number 18-5001). […] All studies were performed in a 200 μL final volume, at 30° C. and 1000 rpm. For these studies, all proteins were diluted using ForteBio's sample diluent buffer (part number 18-5028).

Human IL-6 [11] = molecular target: T3, Human IL-6; assay: Octet bio-layer interferometry; antibody captured on anti-human IgG Fc sensor, then IL-6, then soluble IL-6R1, then gp130 in the presence of IL-6R1; blocked ligands: IL-6R1 and gp130
Description: as §1, §2

B3: Ab2 (antibody, V domains shown)
VH: QEQLKESGGRLVTPGTPLTLTCTASGFSLNDHAMGWVRQAPGKGLEYIGFINSGGSARYASWAEGRFTISRTSTTVDLKMTSLTTEDTATYFCVRGGAVWSIHSFDPWGPGTLVTVSS
VL: AYDMTQTPASVEVAVGGTVTINCQASETIYSWLSWYQQKPGQPPKLLIYQASDLASGVPSRFSGSGAGTEYTLTISGVQCDDAATYYCQQGYSGSNVDNVFGGGTEVVVKR
notes: The entry may carry a leader
binding result (Human IL-6 [10]): binds

B4: Ab6 (antibody, V domains shown)
VH: QSVEESGGRLVTPGTPLTLTCTVSGIDLSDYAMSWVRQAPGKGLEWIGIIYAGSGSTWYASWAKGRFTISKTSTTVDLKITSPTTEDTATYFCARDGYDDYGDFDRLDLWGPGTLVTVSS
VL: AAVLTQTPSPVSVPVGGTVTIKCQSSQSVYNNFLSWYQQKPGQPPKLLIYQASKLASGVPDRFSGSGSGTQFTLTISGVQCDDAATYYCLGGYDDDADNAFGGGTEVVVKR
notes: Captured on an anti-human IgG1 Fc sensor
binding result (Human IL-6 [11]): binds

B5: Ab3 (antibody, V domains shown)
VH: QSLEESGGRLVTPGTPLTLTCTASGFSLSVYYMNWVRQAPGKGLEWIGFITMSDNINYASWAKGRFTISKTSTTVDLKMTSPTTEDTATYFCARSRGWGTMGRLDLWGPGTLVTVSS
VL: AAVLTQTPSPVSAAVGGTVSISCQASQSVYDNNYLSWFQQKPGQPPKLLIYGASTLASGVPSRFVGSGSGTQFTLTITDVQCDDAATYYCAGVYDDDSDNAFGGGTEVVVKR
notes: as for B4
binding result (Human IL-6 [9]): binds

The remaining lines, values ahead:

IC50 (pM), T1165 cell proliferation stimulated by the species' IL-6 (Mouse IL-6 [1]): 1840 pM
IC50 (pM), T1165 cell proliferation stimulated by the species' IL-6 (Cynomolgus monkey IL-6 [2]): 12 pM
IC50 (pM), T1165 cell proliferation stimulated by the species' IL-6 (Human IL-6 [3]): 13 pM
IC50 (pM), T1165 cell proliferation stimulated by the species' IL-6 (Rat IL-6 [4]): 2060 pM
Kd (Mouse IL-6 [5]): 0.4 nM
koff (Mouse IL-6 [5]): 0.0004 s⁻¹
kon (Mouse IL-6 [5]): 1.1e+06 M⁻¹ s⁻¹
Kd (Cynomolgus monkey IL-6 [6]): 0.031 nM
koff (Cynomolgus monkey IL-6 [6]): 3e-06 s⁻¹
kon (Cynomolgus monkey IL-6 [6]): 96000 M⁻¹ s⁻¹
Kd (Human IL-6 [7]): 0.004 nM
koff (Human IL-6 [7]): 5e-07 s⁻¹
kon (Human IL-6 [7]): 160000 M⁻¹ s⁻¹
Kd (Rat IL-6 [8]): 1.4 nM
koff (Rat IL-6 [8]): 0.0022 s⁻¹
kon (Rat IL-6 [8]): 1.6e+06 M⁻¹ s⁻¹
B1: Ab1 (antibody, human IgG1, kappa, N297A, V domains shown)
VH: EVQLVESGGGLVQPGGSLRLSCAASGFSLSNYYVTWVRQAPGKGLEWVGIIYGSDETAYATSAIGRFTISRDNSKNTLYLQMNSLRAEDTAVYYCARDDSSDWDAKFNLWGQGTLVTVSS
VL: AIQMTQSPSSLSASVGDRVTITCQASQSINNELSWYQQKPGKAPKLLIYRASTLASGVPSRFSGSGSGTDFTLTISSLQPDDFATYYCQQGYSLRNIDNAFGGGTKVEIKR
notes: Humanized from a rabbit antibody, IgG1 kappa, aglycosylated, produced in Pichia pastoris; also called clazakizumab; ALD518

binding result (Human IL-6 [9]): binds
B2: Ab4 (antibody, V domains shown)
VH: QEQLKESGGGLVTPGGTLTLTCTASGFSLNAYYMNWVRQAPGKGLEWIGFITLNNNVAYANWAKGRFTFSKTSTTVDLKMTSPTPEDTATYFCARSRGWGAMGRLDLWGHGTLVTVSS
VL: DPVLTQTPSPVSAPVGGTVSISCQASQSVYENNYLSWFQQKPGQPPKLLIYGASTLDSGVPSRFKGSGSGTQFTLTITDVQCDDAATYYCAGVYDDDSDDAFGGGTEVVVKR
notes: as for B4
